Starred links: 1 amine or outer side, 2 acyl side, 3 side chain; linkers in the order of their positions; H or OH if unused. Non-standard residues stand in square brackets, D forms with d. Groups on a side chain read outwards from the residue. No end group written: not given here. *: point of attachment. 2OEGgEgE‑C15DA = 2OEGgEgE-C15 diacid linker-lipid on the Lys side chain, O=C(O)CCCCCCCCCCCCCC(=O)N[C@@H](CCC(=O)N[C@@H](CCC(=O)NCCOCCOCC(=O)NCCOCCOCC(=O)*)C(=O)O)C(=O)O; GGEEE‑C15DA = Gly-Gly-Glu-Glu-Glu linker (GGEEE) joined to a C15 diacid lipid (C15DA), on the Lys side chain; C16 diacid = O=C(O)CCCCCCCCCCCCCCC(=O)*; C15 diacid = O=C(O)CCCCCCCCCCCCCC(=O)*; γGlu = O=C(O)[C@H](CCC(=O)[*:2])N[*:1]; NMeY = CN[C@@H](Cc1ccc(O)cc1)C(=O)O; AEEA = NCCOCCOCC(=O)O; Aib = CC(C)(N)C(=O)O
Experiments:
[1] = molecular target: full-length human GLP-1R with an N-terminal FLAG tag (human, UniProt P43220 24-463); assay: cell-based or functional assay
[2] = molecular target: T1, full-length human GIPR with an N-terminal FLAG tag (human, UniProt P48546 22-466); assay: cell-based or functional assay
T1 sequence (looked up): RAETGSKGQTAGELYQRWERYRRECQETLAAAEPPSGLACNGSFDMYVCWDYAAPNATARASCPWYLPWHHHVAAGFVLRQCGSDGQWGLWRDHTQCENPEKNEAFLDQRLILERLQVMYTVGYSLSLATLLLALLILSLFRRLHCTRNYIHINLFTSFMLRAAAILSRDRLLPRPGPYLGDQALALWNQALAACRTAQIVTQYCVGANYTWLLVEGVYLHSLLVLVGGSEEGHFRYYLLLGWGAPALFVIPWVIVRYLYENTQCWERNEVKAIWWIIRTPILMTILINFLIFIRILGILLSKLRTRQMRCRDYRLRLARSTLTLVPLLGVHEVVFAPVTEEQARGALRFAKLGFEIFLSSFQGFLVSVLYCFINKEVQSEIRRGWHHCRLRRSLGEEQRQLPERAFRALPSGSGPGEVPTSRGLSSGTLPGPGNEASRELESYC

| Binder | Human GLP1R cAMP HEK293T EC50 [1] [nM] | Human GIPR cAMP, HEK293T EC50 [2] [nM] |
| --- | --- | --- |
| [NMeY][Aib]EGTFISDYSI[Aib]LDR[Aib]AQ[Aib]K(2OEGgEgE‑C15DA)FVNWLLAQSPSSGAPPPS-NH2 (N-terminus assumed; SMILES CC[C@H](C)[C@H](NC(=O)[C@H](Cc1ccccc1)NC(=O)[C@@H](NC(=O)CNC(=O)[C@H](CCC(=O)O)NC(=O)C(C)(C)NC(=O)[C@H](Cc1ccc(O)cc1)NC)[C@@H](C)O)C(=O)N[C@@H](CO)C(=O)N[C@@H](CC(=O)O)C(=O)N[C@@H](Cc1ccc(O)cc1)C(=O)N[C@@H](CO)C(=O)N[C@H](C(=O)NC(C)(C)C(=O)N[C@@H](CC(C)C)C(=O)N[C@@H](CC(=O)O)C(=O)N[C@@H](CCCNC(=N)N)C(=O)NC(C)(C)C(=O)N[C@@H](C)C(=O)N[C@@H](CCC(N)=O)C(=O)NC(C)(C)C(=O)N[C@@H](CCCCNC(=O)COCCOCCNC(=O)COCCOCCNC(=O)CC[C@H](NC(=O)CC[C@H](NC(=O)CCCCCCCCCCCCCC(=O)O)C(=O)O)C(=O)O)C(=O)N[C@@H](Cc1ccccc1)C(=O)N[C@H](C(=O)N[C@@H](CC(N)=O)C(=O)N[C@@H](Cc1c[nH]c2ccccc12)C(=O)N[C@@H](CC(C)C)C(=O)N[C@@H](CC(C)C)C(=O)N[C@@H](C)C(=O)N[C@@H](CCC(N)=O)C(=O)N[C@@H](CO)C(=O)N1CCC[C@H]1C(=O)N[C@@H](CO)C(=O)N[C@@H](CO)C(=O)NCC(=O)N[C@@H](C)C(=O)N1CCC[C@H]1C(=O)N1CCC[C@H]1C(=O)N1CCC[C@H]1C(=O)N[C@@H](CO)C(N)=O)C(C)C)[C@@H](C)CC) [Compound 103] | 148 | 0.0005 |
| [NMeY][Aib]EGTFISDYSIALDR[Aib]KQ[Aib]DFVNWLLAQSPSSGAPPPS-NH2 (not fully specified (residue 18, N-terminus)) [Compound 106] | 120 | 0.0005 |
| [NMeY][Aib]EGTFISDYSIALDRK([AEEA-AEEA-γGlu-C15 diacid])AQ[Aib]DFVNWLLAQRPSSGAPPPS-NH2 [Compound 104] | 1000 | 0.0004 |
| [NMeY][Aib]EGTFISDYSI[Aib]K([GGEEE-C15 diacid])DR[Aib]AQ[Aib]NFVNWLLAQRPSSGAPPPS-NH2 [Compound 95] | 537 | 0.0002 |
| [NMeY][Aib]EGTFISDYSI[Aib]LDR[Aib]AQ[Aib]DFVNWLLAQK(2OEGgE‑C15DA)PSSGAPPPS-NH2 [Compound 100] | 1000 | 0.0007 |
| [NMeY][Aib]EGTFISDYSIAK([GGEEE-C15 diacid])DR[Aib]AQ[Aib]NFVNWLLAQRPSSGAPPPS-NH2 [Compound 99] | 1000 | 0.0002 |
| [NMeY][Aib]EGTFISDYSIALDRIHQ[Aib]K([AEEA-AEEA-γGlu-C16 diacid])FVNWLLAQK [Compound 9] | 95.5 | 0.0002 |
| [NMeY][Aib]EGTFISDYSIALDR[Aib]K(GGEEE‑C15DA)Q[Aib]NFVNWLLAQSPSSGAPPPS-NH2 [Compound 105] | 1000 | 0.0003 |
| [NMeY][Aib]EGTFISDYSIALDR[Aib]AQ[Aib]NFVNWLLAQK(2OEGgEgE‑C15DA)PSSGAPPPS-NH2 (N-terminus assumed; SMILES CC[C@H](C)[C@H](NC(=O)[C@H](CO)NC(=O)[C@H](Cc1ccc(O)cc1)NC(=O)[C@H](CC(=O)O)NC(=O)[C@H](CO)NC(=O)[C@@H](NC(=O)[C@H](Cc1ccccc1)NC(=O)[C@@H](NC(=O)CNC(=O)[C@H](CCC(=O)O)NC(=O)C(C)(C)NC(=O)[C@H](Cc1ccc(O)cc1)NC)[C@@H](C)O)[C@@H](C)CC)C(=O)N[C@@H](C)C(=O)N[C@@H](CC(C)C)C(=O)N[C@@H](CC(=O)O)C(=O)N[C@@H](CCCNC(=N)N)C(=O)NC(C)(C)C(=O)N[C@@H](C)C(=O)N[C@@H](CCC(N)=O)C(=O)NC(C)(C)C(=O)N[C@@H](CC(N)=O)C(=O)N[C@@H](Cc1ccccc1)C(=O)N[C@H](C(=O)N[C@@H](CC(N)=O)C(=O)N[C@@H](Cc1c[nH]c2ccccc12)C(=O)N[C@@H](CC(C)C)C(=O)N[C@@H](CC(C)C)C(=O)N[C@@H](C)C(=O)N[C@@H](CCC(N)=O)C(=O)N[C@@H](CCCCNC(=O)COCCOCCNC(=O)COCCOCCNC(=O)CC[C@H](NC(=O)CC[C@H](NC(=O)CCCCCCCCCCCCCC(=O)O)C(=O)O)C(=O)O)C(=O)N1CCC[C@H]1C(=O)N[C@@H](CO)C(=O)N[C@@H](CO)C(=O)NCC(=O)N[C@@H](C)C(=O)N1CCC[C@H]1C(=O)N1CCC[C@H]1C(=O)N1CCC[C@H]1C(=O)N[C@@H](CO)C(N)=O)C(C)C) [Compound 101] | 550 | 0.0002 |
| [NMeY][Aib]EGTFISDYSIALDR[Aib]AQ[Aib]DFVNWLLAK([AEEA-AEEA-γGlu-C15 diacid])SPSSG-NH2 (N-terminus assumed; SMILES CC[C@H](C)[C@H](NC(=O)[C@H](CO)NC(=O)[C@H](Cc1ccc(O)cc1)NC(=O)[C@H](CC(=O)O)NC(=O)[C@H](CO)NC(=O)[C@@H](NC(=O)[C@H](Cc1ccccc1)NC(=O)[C@@H](NC(=O)CNC(=O)[C@H](CCC(=O)O)NC(=O)C(C)(C)NC(=O)[C@H](Cc1ccc(O)cc1)NC)[C@@H](C)O)[C@@H](C)CC)C(=O)N[C@@H](C)C(=O)N[C@@H](CC(C)C)C(=O)N[C@@H](CC(=O)O)C(=O)N[C@@H](CCCNC(=N)N)C(=O)NC(C)(C)C(=O)N[C@@H](C)C(=O)N[C@@H](CCC(N)=O)C(=O)NC(C)(C)C(=O)N[C@@H](CC(=O)O)C(=O)N[C@@H](Cc1ccccc1)C(=O)N[C@H](C(=O)N[C@@H](CC(N)=O)C(=O)N[C@@H](Cc1c[nH]c2ccccc12)C(=O)N[C@@H](CC(C)C)C(=O)N[C@@H](CC(C)C)C(=O)N[C@@H](C)C(=O)N[C@@H](CCCCNC(=O)COCCOCCNC(=O)COCCOCCNC(=O)CC[C@H](NC(=O)CCCCCCCCCCCCCC(=O)O)C(=O)O)C(=O)N[C@@H](CO)C(=O)N1CCC[C@H]1C(=O)N[C@@H](CO)C(=O)N[C@@H](CO)C(=O)NCC(N)=O)C(C)C) [Compound 98] | 1000 | 0.0006 |
| [NMeY][Aib]EGTFISDYSIAK([G5-γGlu-C15 diacid])DR[Aib]AQ[Aib]DFVNWLLAQRGGGGS-NH2 [Compound 97] | 490 | 0.0002 |
| [NMeY][Aib]EGTFISDYSI[Aib]LDR[Aib]AQ[Aib]K(2OEGgE‑C15DA)FVNWLLAQSPSSGAPPPS-NH2 [Compound 102] | 31.6 | 0.0005 |
| [NMeY][Aib]EGTFISDYSI[Aib]K([AEEA-γGlu-γGlu-C15 diacid])DR[Aib]AQ[Aib]NFVNWLLAQRPSSGAPPPS-NH2 (N-terminus assumed; SMILES CC[C@H](C)[C@H](NC(=O)[C@H](Cc1ccccc1)NC(=O)[C@@H](NC(=O)CNC(=O)[C@H](CCC(=O)O)NC(=O)C(C)(C)NC(=O)[C@H](Cc1ccc(O)cc1)NC)[C@@H](C)O)C(=O)N[C@@H](CO)C(=O)N[C@@H](CC(=O)O)C(=O)N[C@@H](Cc1ccc(O)cc1)C(=O)N[C@@H](CO)C(=O)N[C@H](C(=O)NC(C)(C)C(=O)N[C@@H](CCCCNC(=O)COCCOCCNC(=O)CC[C@H](NC(=O)CC[C@H](NC(=O)CCCCCCCCCCCCCC(=O)O)C(=O)O)C(=O)O)C(=O)N[C@@H](CC(=O)O)C(=O)N[C@@H](CCCNC(=N)N)C(=O)NC(C)(C)C(=O)N[C@@H](C)C(=O)N[C@@H](CCC(N)=O)C(=O)NC(C)(C)C(=O)N[C@@H](CC(N)=O)C(=O)N[C@@H](Cc1ccccc1)C(=O)N[C@H](C(=O)N[C@@H](CC(N)=O)C(=O)N[C@@H](Cc1c[nH]c2ccccc12)C(=O)N[C@@H](CC(C)C)C(=O)N[C@@H](CC(C)C)C(=O)N[C@@H](C)C(=O)N[C@@H](CCC(N)=O)C(=O)N[C@@H](CCCNC(=N)N)C(=O)N1CCC[C@H]1C(=O)N[C@@H](CO)C(=O)N[C@@H](CO)C(=O)NCC(=O)N[C@@H](C)C(=O)N1CCC[C@H]1C(=O)N1CCC[C@H]1C(=O)N1CCC[C@H]1C(=O)N[C@@H](CO)C(N)=O)C(C)C)[C@@H](C)CC) [Compound 94] | 501 | 0.0006 |
| [NMeY][Aib]EGTFISDYSIALDR[Aib]AQ[Aib]KFVNWLLAQRGGGGS-NH2 (not fully specified (residue 21)) [Compound 96] | 89.1 | 0.0004 |
